In patent publication US20190016828A1 (Hoffmann-La Roche, published 2019):
Residue numbers refer to the chain shown, from its start. In names and notes the source's numbering stands.

B1: YTE-mutant of anti-IGF-1R antibody (antibody, human IgG1, kappa)
light: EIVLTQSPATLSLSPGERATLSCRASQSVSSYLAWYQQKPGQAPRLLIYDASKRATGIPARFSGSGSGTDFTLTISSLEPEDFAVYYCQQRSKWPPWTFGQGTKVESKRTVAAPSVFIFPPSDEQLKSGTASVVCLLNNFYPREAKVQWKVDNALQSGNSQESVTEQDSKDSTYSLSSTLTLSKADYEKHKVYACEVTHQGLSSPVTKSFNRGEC
heavy: QVELVESGGGVVQPGRSQRLSCAASGFTFSSYGMHWVRQAPGKGLEWVAIIWFDGSSTYYADSVRGRFTISRDNSKNTLYLQMNSLRAEDTAVYFCARELGRRYFDLWGRGTLVSVSSASTKGPSVFPLAPSSKSTSGGTAALGCLVKDYFPEPVTVSWNSGALTSGVHTFPAVLQSSGLYSLSSVVTVPSSSLGTQTYICNVNHKPSNTKVDKKVEPKSCDKTHTCPPCPAPELLGGPSVFLFPPKPKDTLYITREPEVTCVVVDVSHEDPEVKFNWYVDGVEVHNAKTKPREEQYNSTYRVVSVLTVLHQDWLNGKEYKCKVSNKALPAPIEKTISKAKGQPREPQVYTLPPSRDELTKNQVSLTCLVKGFYPSDIAVEWESNGQPENNYKTTPPVLDSDGSFFLYSKLTVDKSRWQQGNVFSCSVMHEALHNHYTQKSLSLSPG
notes: IgG1; also called <IGF-1R> IgG1 with M252Y, S254T, T256E; anti-IGF-1R IgG1 with YTE mutation
B2: IGF-1R 0034 (antibody, human IgG1, kappa)
light: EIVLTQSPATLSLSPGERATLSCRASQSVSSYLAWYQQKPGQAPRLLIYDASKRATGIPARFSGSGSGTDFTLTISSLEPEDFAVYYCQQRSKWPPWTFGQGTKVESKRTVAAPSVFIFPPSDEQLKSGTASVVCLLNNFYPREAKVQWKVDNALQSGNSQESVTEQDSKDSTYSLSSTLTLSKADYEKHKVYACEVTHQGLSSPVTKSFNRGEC
heavy 1: not shown
heavy 2: QVELVESGGGVVQPGRSQRLSCAASGFTFSSYGMHWVRQAPGKGLEWVAIIWFDGSSTYYADSVRGRFTISRDNSKNTLYLQMNSLRAEDTAVYFCARELGRRYFDLWGRGTLVSVSSASTKGPSVFPLAPSSKSTSGGTAALGCLVKDYFPEPVTVSWNSGALTSGVHTFPAVLQSSGLYSLSSVVTVPSSSLGTQTYICNVNHKPSNTKVDKKVEPKSCDKTHTCPPCPAPELLGGPSVFLFPPKPKDTLMASRTPEVTCVVVDVSHEDPEVKFNWYVDGVEVHNAKTKPREEQYNSTYRVVSVLTVLAQDWLNGKEYKCKVSNKALPAPIEKTISKAKGQPREPQVCTLPPSRDELTKNQVSLSCAVKGFYPSDIAVEWESNGQPENNYKTTPPVLDSDGSFFLVSKLTVDKSRWQQGNVFSCSVMHEALHNAYTQKSLSLSPGK
notes: tied by description; also called <IgF-1R> IgG1 knob wt, hole I253A, H310A, H435A; anti-IGF-1R antibody, one chain with I253A/H310A/H435A
B3: IGF-1R 0037 (antibody, human IgG1, kappa)
light: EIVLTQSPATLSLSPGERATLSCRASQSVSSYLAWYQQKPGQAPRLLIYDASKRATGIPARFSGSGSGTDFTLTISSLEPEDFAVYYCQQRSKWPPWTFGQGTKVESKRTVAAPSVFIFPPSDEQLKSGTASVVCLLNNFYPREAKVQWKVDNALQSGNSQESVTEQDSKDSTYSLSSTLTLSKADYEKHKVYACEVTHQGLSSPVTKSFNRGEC
heavy 1: not shown
heavy 2: B2 heavy 2 with L252D, A254I, A311H, L315D, L433D, A436H
notes: tied by description; also called <IGF-1R> IgG1 knob wt, hole L251D, L314D, L432D; anti-IGF-1R antibody, one chain with L251D/L314D/L432D
B4: IGF-1R 0035 (antibody, human IgG1, kappa)
light: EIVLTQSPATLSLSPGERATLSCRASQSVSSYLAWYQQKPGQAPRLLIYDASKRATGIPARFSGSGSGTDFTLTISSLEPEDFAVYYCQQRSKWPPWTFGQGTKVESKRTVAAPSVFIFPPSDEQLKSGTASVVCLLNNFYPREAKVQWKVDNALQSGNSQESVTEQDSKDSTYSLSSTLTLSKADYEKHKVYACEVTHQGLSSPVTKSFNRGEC
heavy 1: not shown
heavy 2: B2 heavy 2 with A254I, H434A, A436H, Y437A
notes: also called <IGF-1R> IgG1 knob wt, hole H310A, H433A, Y436A; IGF-1R 0035 (with HHY-AAA mutation in one Fc-region polypeptide)
B5: IGF-1R 0036 (antibody, human IgG1, kappa)
light: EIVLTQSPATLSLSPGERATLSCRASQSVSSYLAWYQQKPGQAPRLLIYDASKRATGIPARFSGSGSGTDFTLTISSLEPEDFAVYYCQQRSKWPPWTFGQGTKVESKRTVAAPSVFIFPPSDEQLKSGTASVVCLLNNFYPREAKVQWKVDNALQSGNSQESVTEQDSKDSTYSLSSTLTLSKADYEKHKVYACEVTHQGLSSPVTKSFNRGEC
heavy 1: not shown
heavy 2: B2 heavy 2 with M253Y, A254I, S255T, T257E, A311H, A436H
notes: tied by description; also called <IGF-1R> IgG1 knob wt, hole M252Y, S254T, T256E; anti-IGF-1R antibody, one chain with M252Y/S254T/T256E

Key:
[1] = molecular target: T1, human neonatal Fc-receptor (FcRn) (human, UniProt P55899 24-297; P61769 21-119); experiment: SPR (BIAcore), FcRn immobilized on a CM5 chip, pH 6.0, 200 nM sample
T1 construct: also called human FcRn; huFcRn
T1 sequence (P55899 24-297 limits assumed, chain 1 of 2): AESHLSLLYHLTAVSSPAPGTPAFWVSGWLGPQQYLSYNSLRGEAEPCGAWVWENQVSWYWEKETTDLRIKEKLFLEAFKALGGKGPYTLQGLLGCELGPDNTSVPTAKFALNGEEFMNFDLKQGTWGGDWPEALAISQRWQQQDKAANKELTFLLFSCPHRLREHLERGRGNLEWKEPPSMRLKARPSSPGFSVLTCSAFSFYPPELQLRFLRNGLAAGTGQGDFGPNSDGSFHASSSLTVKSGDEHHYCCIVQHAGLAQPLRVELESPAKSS
T1 sequence (P61769 21-119 limits assumed, chain 2 of 2): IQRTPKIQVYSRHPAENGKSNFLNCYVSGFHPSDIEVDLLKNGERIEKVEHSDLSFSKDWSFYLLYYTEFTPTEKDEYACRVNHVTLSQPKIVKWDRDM
Method: The binding properties of wild-type antibody and the mutants to FcRn were analyzed by surface plasmon resonance (SPR) technology using a BIAcore T100 instrument (BIAcore AB, Uppsala, Sweden). […] In the current assay, the FcRn receptor was immobilized onto a BIAcore CM5-biosensor chip (GE Healthcare Bioscience, Uppsala, Sweden) via amine coupling to a level of 400 Response units (RU). The assay was carried out at room temperature with PBS, 0.05% Tween20 pH 6.0 (GE Healthcare Bioscience) as running and dilution buffer. 200 nM of samples were injected at a flow rate of 50 μL/min at room temperature. Association time was 180 sec., dissociation phase took 360 sec. Regeneration of the chip surface was reached by a short injection of HBS-P, pH 8.0. Evaluation of SPR-data was performed by comparison of the biological response signal height at 180 sec. after injection and at 300 sec. after injection. The corresponding parameters are the RU max level (180 sec. after injection) and late stability (300 sec. after end of injection).

[2] = molecular target: T1, human neonatal Fc-receptor (FcRn); experiment: FcRn affinity chromatography, anti-IGF-1R KiH antibody

Binder	binding result [1]	retention time on FcRn affinity column [2] [min]
B1	binds	
B2		42
B3		40.9
B4		42.4
B5		57.6
